Literature values as cited in publication PMC2683937.

Legend:
BMP4 (Homo sapiens) = BMP4 (Homo sapiens) (UniProt P12644)
TGF-β1 (Homo sapiens) = TGF-β1 (Homo sapiens) (UniProt P01137)
UniProt P01137, sequence (P01137 279-390): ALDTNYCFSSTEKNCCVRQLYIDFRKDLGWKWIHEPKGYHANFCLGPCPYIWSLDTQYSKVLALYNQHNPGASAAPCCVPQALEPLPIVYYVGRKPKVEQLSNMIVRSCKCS

UniProt P12644, sequence (P12644 293-408): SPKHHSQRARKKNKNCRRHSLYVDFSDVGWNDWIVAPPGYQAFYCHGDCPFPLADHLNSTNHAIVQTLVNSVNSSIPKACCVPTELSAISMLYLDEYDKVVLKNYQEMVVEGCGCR

For CCN2 (from UniProt P29279), the Kd (BMP4 (Homo sapiens)) is given as 5 nM and the Kd (TGF-β1 (Homo sapiens)) is given as 30 nM.
